Measured values published in US7345160B2, “Aequorin and obelin mutants with differing wavelengths and bioluminescence” (University of Kentucky Research Foundation, priority 2004, dated 2008).
Values joined by “and” are separate entries in the source; they are usually repeats but may differ in a detail not shown here. Equal values may be shown once. Read-outs that look alike come from different tables or passages of the source.

What was measured:
[1] = general statement, cited from earlier work
[2] = Emission spectra (emission maximum) of purified aequorin mutants with coelenterazine analogues; format: physicochemical
From the text: In order to detect the inventive aequorin mutants, the use of an instrument capable of detecting flash-type bioluminescence over a wide range of wavelengths is envisaged. For example, a fiber optic sensor collects the bioluminescence signal emitted by the aequorin and transmits it to a grating that directs the beam of light to onto an optical array detector. In one embodiment, the system to acquire the spectra from the flash kinetics of aequorin and obelin luminescence consists of a microtiter plate reader. The optical path of the instrument is replaced with a high collecting efficiency fiber optic bundle. This fiberoptic bundle carries the emitted light into an Oriel Instruments Fixed Imaging Compact Spectrograph, the dispersed light is then fed into an ANDOR cooled CCD detector. See for example the SpectroSystem By Sciencewares, Inc (East Falmouth, Mass.).
Cysteine free aequorin (Mutant S), Y132I Mutant S aequorin, Aeq5 (Mutant S with a cysteine at position 5), and wild type Aequorin were purified and multiple spectra taken and averaged (See FIG. 1). […] Mutant S had emission maximums ranging from 448 nm to 491 nm. Y132I Mutant S has emission maximums ranging from 453 nm to 487 nm. Aequorin 5 had emission maximums ranging from 466 nm to 491 nm. The greatest spread in emission maximum thus far has been between MutS/CTZ i and MutS/CTZ hcp (448 nm, 491 nm, respectively (43 nm range)). […] The greatest spread in emission maxima wavelengths so far with the same coelenterazine is CTZ hcp with Aeq5 (476 nm) and MutS (448 nm) being 28 nm. Also, the maximum spread with the same CTZ's and different aequorins is 19 nm for i, ip, and f.
Mutant S, Mutant S Y132I and Aeq 5 final emission spectrums were the result of the average of three trials. Wild type aequorins final spectrum was the result of two trials. All mutants, except Aeq5, were purified to >95% purity using SDS-PAGE and silver staining. All coelenterazine analogues were diluted to 100 micrograms/ML methanol. Solvent composition, coelenterazine concentration, temperature, and incubation time, were the same for all trials except with N coelenterazine, which required a higher concentration of aequorin than the other coelenterazines to show activity. Concentrations of the different mutants were not identical. Half life determination of Y132I Mut S with coelenterazines i, ip, h, hcp, cp, fcp, f, and native were 23, 0.9, 0.4, 0.2, 0.6, 0.7, 2.6, and 1.2 seconds, respectively.

[3] = in solution at 4° C. for over a month; cited from earlier work
[4] = Emission spectra of obelin and obelin mutants with coelenterazine analogues; format: physicochemical; settings: all coelenterazine analogues
From the text: Obelin mutants C75S/C51/S, C75S/C67, C158S, C151S, and wild type obelin were purified and multiple spectra taken and averaged (See FIG. 20).

B1: wild type aequorin: native recombinant aequorin encoded by SEQ ID NO: 1, purchased commercially (Aqualite from Molecular Probes) (protein, listed as Aequorea victoria)
chain: VKLTSDFDNPRWIGRHKHMFNFLDVNHNGKISLDEMVYKASDIVINNLGATPEQAKRHKDAVEAFFGGAGMKYGVETDWPAYIEGWKKLATDELEKYAKNEPTLIRIWGDALFDIVDKDQNGAITLDEWKAYTKAAGIIQSSEDCEETFRVCDIDESGQLDVDEMTRQHLGFWYTMDPACEKLYGGAVP
emission wavelength of aequorin [1]: 469-472 nm | emission wavelength of aequorin ([1]; listed as aequorin): 469 nm | emission wavelength of aequorin ([1]; listed as recombinant aequorin): 469 nm | emission maximum ([2]; over all coelenterazine analogues (i, ip, h, hcp, cp, fcp, f, n, native)): 472 nm | emission maximum ([2]; over all coelenterazine analogues (i, ip, h, hcp, cp, fcp, f, n, native), listed as Wild type aequorin): the same emission maxima for all coelenterazines analogues | emission maximum ([2]; over all coelenterazine analogues (i, ip, h, hcp, cp, fcp, f, n, native), listed as native recombinant aequorin): 472 nm | original activity retained on storage [3]: 85%

B2: Mutant S: aequorin mutant where the three cysteine residues are replaced with serine (positions 145, 152, 180); SEQ ID NO: 4 (protein, listed as Aequorea victoria)
chain: VKLTSDFDNPRWIGRHKHMFNFLDVNHNGKISLDEMVYKASDIVINNLGATPEQAKRHKDAVEAFFGGAGMKYGVETDWPAYIEGWKKLATDELEKYAKNEPTLIRIWGDALFDIVDKDQNGAITLDEWKAYTKAAGIIQSSEDSEETFRVSDIDESGQLDVDEMTRQHLGFWYTMDPASEKLYGGAVP
spread in emission maximum between CTZ i and CTZ hcp ([2]; same protein, CTZ i vs CTZ hcp): 43 nm | emission maximum ([2]; with CTZ hcp, listed as MutS): 491 nm and 448 nm | emission maximum ([2]; with CTZ i): 448 nm

B3: Wild type obelin: bioluminescent protein from the marine hydroid Obelia longissima; SEQ ID NO: 6 (protein, listed as Obelia longissima)
chain: MSSKYAVKLKTDFDNPRWIKRHKHMFDFLDINGNGKITLDEIVSKASDDICAKLEATPEQTKRHQVCVEAFFRGCGMEYGKEIAFPQFLDGWKQLATSELKKWARNEPTLIREWGDAVFDIFDKDGSGTITLDEWKAYGKISGISPSQEDCEATFRHCDLDNSGDLDVDEMTRQHLGFWYTLDPEADGLYGNGVP
emission maxima [4]: 469 nm
